Experimental data from patent publication CN114230662A (ANYUAN MEDICINE SCIENCE AND TECH SHANGHAI LIMITED COMPANY, dated 2022).

B1: AB12W3 (antibody, human IgG4 S228P, kappa, V domains shown)
VH: EVQLVQSGAEVVKPGATVKISCKASGYSFTDYFMTWMKQSPGKSLEWIGRINPYNGETFYNQKFQGKATLTVDKSSTTAHMELSSLRSEDSAVYYCGRGGTAGTDYWGQGTLLTVSS
VL: DVLLTQSPLSLPVTLGQPASISCRSSQSVVRSNGNTYLEWYLQKPGQSPRLLINKVSRRFSGVPDRFSGSGSGSEFTLKISRVEAEDVGIYYCFQGSHVPYTFGQGTKLEIKR
notes: Humanized from Mo2A1621 by resurfacing; Expressed in CHO cells
B2: AB12W6 (antibody, human IgG4 S228P, kappa)
heavy: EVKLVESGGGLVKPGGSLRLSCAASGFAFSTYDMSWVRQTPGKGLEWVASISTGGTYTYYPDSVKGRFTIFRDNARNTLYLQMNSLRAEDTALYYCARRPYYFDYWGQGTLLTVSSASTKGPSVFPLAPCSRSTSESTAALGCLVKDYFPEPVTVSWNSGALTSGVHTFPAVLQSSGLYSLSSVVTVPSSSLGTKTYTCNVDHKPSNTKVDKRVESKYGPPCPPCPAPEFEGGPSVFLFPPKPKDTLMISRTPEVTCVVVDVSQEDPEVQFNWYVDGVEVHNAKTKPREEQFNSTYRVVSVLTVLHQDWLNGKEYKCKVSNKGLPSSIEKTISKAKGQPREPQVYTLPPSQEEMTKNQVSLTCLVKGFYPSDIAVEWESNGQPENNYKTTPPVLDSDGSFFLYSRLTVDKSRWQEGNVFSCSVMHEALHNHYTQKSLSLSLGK
light: DIKMTQSPSSKSASVGERVTITCQASQDINNYLSWFQQKPGKAPKTLIYRANRLMTGVPSRFSGSGSGQDFSLTISSLQPEDMGIYYCLQFDDFPLTFGQGTKLEIKRTVAAPSVFIFPPSDEQLKSGTASVVCLLNNFYPREAKVQWKVDNALQSGNSQESVTEQDSKDSTYSLSSTLTLSKADYEKHKVYACEVTHQGLSSPVTKSFNRGEC
notes: Humanized from Mo2A21331 by resurfacing
B3: AB12W2 (antibody, V domains shown)
VH: QMQLVQSGAEVKKTGSSVKVSCKASGFNIKDYYLHWVRQAPGQALEWMGWIDPDQGDTEYAQKFQDRVTITRDRSMSTAYMELSSLRSEDTAMYYCNAAYGSSSYPMDYWGQGTTVTV
VL: NIQMTQSPSAMSASVGDRVTITCKASQDIHRYLSWFQQKPGKVPKHLIYRANRLVSGVPSRFSGSGSGTEFTLTISSLQPEDFATYYCLQYDEFPYTFGGGTKVEIK
notes: Humanized anti-human CD47 control antibody with the variable regions of Celgene's CC-90002 (per CN104271757B); it was detected with anti-human IgG; also called CC-90002 (source of the variable regions); 对照抗体AB12W2
B4: AB12W9 (antibody)
heavy: EVKLVESGGGLVKPGGSLRLSCAASGFAFSTYDMSWVRQTPGKGLEWVASISTGGTYTYYPDSVKGRFTIFRDNARNTLYLQMNSLRAEDTALYYCARRPYYFDYWGQGTLLTVSSASTKGPSVFPLAPSSKSTSGGTAALGCLVKDYFPEPVTVSWNSGALTSGVHTFPAVLQSSGLYSLSSVVTVPSSSLGTQTYICNVNHKPSNTKVDKKVEPKSCDKTHTCPPCPAPELLGGPSVFLFPPKPKDQLMISRTPEVTCVVVDVSHEDPEVKFNWYVDGVEVHNAKTKPREEQYASTYRVVSVLTVLHQDWLNGKEYKCKVSNKALPAPIEKTISKAKGQPREPQVYTLPPSREEMTKNQVSLTCLVKGFYPSDIAVEWESNGQPENNYKTTPPVLDSDGSFFLYSKLTVDKSRWQQGNVFSCSVLHEALHNHYTQKSLSLSPGK
light: B2 light
notes: as for B2
B5: AB12W4 (antibody, human IgG4 S228P, kappa, V domains shown)
VH: QIQLVQSGAEVVKPGASVKISCKASGYTFTDYYINWVKQAPGQRLEWIGWIYPGSGNTKHNQKFQGKATLTVDTSSSTAYMELSSLRSEDTAVYFCARRGTYYYGSSSDGFPYWGQGTLVTVSS
VL: QIVLTQSPATMSASPGERVTISCRASSSVYYMYWYQQKPGQSPRPWIYRTSNLATGVPARFSGSGSGTSYSLTISSMEPEDFATYYCQQYHSYPLTFGQGTKLEIKR
notes: Humanized from Mo2A11971 by resurfacing

Assays:
[1] = target: T1, 人CD47抗原 (recombinant human CD47, 北京义翘神州生物技术有限公司, 货号12283-HCCH) (human, UniProt Q08722 19-139); assay: ELISA, coated human CD47 (0.2 μg/ml)
T1 construct: The catalogue number is printed only in 6.1 and 6.2; the construct is not described; also called 重组人CD47; human CD47 antigen
T1 sequence (Q08722 19-139 limits assumed): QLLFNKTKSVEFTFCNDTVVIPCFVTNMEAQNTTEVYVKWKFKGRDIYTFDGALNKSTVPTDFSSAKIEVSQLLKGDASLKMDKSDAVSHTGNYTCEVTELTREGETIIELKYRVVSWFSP

[2] = target: T2, human CD47 on cells (Raji-luc, CCRF-CEM, Jurkat, CHO/K1-hCD47) (human, UniProt Q08722 19-323); assay: flow cytometry on CHO/K1-hCD47 cells
T2 construct: whole, on cells; also called 细胞表面的CD47
T2 sequence (Q08722 19-323): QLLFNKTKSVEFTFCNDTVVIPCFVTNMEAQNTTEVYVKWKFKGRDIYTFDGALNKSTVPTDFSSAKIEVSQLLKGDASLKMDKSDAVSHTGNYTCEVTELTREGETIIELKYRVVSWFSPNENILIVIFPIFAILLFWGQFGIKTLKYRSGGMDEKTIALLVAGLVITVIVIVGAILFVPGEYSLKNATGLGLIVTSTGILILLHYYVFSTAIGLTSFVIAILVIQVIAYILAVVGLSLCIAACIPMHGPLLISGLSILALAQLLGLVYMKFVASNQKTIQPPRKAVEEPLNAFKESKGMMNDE

[3] = target: T1, 人CD47抗原 (recombinant human CD47, …); assay: blocking ELISA on coated human CD47 (2.0 μg/ml); competitor biotin-labelled human SIRPα (0.2 μg/ml)
[4] = target: T2, human CD47 on cells (Raji-luc, …); assay: flow cytometry on Raji-luc and Jurkat cells; against control antibody AB12W2
[5] = target: T2, human CD47 on cells (Raji-luc, …); assay: flow cytometry on CCRF-CEM cells
[6] = target: T3, 重组人CD47蛋白(His-tag) (Acro Biosystems, 货号CD-H5227) (human, UniProt Q08722 19-139); assay: Biacore T200 (called BLI in the filing), method as in example 2.5
T3 construct: Analyte (mobile phase) in the Biacore T200 measurements of 2.5 and 6.6; also called recombinant human CD47 protein (His-tag); not shown: His tag
T3 sequence (Q08722 19-139 limits assumed): as the sequence (Q08722 19-139 limits assumed) above

Binder | EC50 [1] [µg/mL] | EC50 [2] [µg/mL] | EC50 [3] [µg/mL] | EC50 lower than that of the control antibody AB12W2 [4] [%] | EC50 [5] [µg/mL] | binding result [6]
B1 | 0.0112 | 0.461 | 1.17 |  |  | 
B2 | 0.0128 | 0.217 | 1.29 | 50 |  | 
B3 | 0.0092 |  | 1.02 |  | 0.157 | 
B4 |  | 0.252 |  |  | 0.162 | 
B5 |  |  |  |  |  | binds
